# Test results reported in US20260231954A1, “PESTICIDAL ENZYMES FOR USE ON NEMATODES, INSECTS, AND MOLLUSKS” (priority 2023, published 2026).
# Columns and labels:
# Format in all cases: in vivo
# corn [1] = assay: Field trial: esterase on urea with or without NBPT nitrogen stabilizer, corn yield; conditions: 1, 2, or 3 fl oz fermentation product on 135 lb N/A urea, with or without 64 fl oz/ton NBPT
# Description: Esterase A (EstA) from Bacillus subtilis (SEQ ID NO:254) was produced via fermentation of a recombinantly produced enzyme in Bacillus subtilis. 1, 2, or 3 fl oz of fermentation product was applied onto 135 lb N/A (nitrogen equivalent per acre) urea fertilizer in a concrete mixer, and allowed to mix for 1 minute. A urea control treatment without fermentation media was also created. An addition treatment that contained 64 fl oz/ton N-Butyl-thiophosphoric triamide (NBPT) nitrogen stabilizer or 64 fl oz/ton NBPT nitrogen stabilizer with 3 fl oz/A EstA fermentation product was also included in the trial. Urea, alone or with fermentation media was distributed across 4 small replicated plots each prior to planting of corn with 4 replicates of 400 ft2 each at each site.
# corn [2] = assay: Field trial: esterase on MAP/DAP fertilizer, corn yield; conditions: 2 fl oz/A EstA fermentation on MAP/DAP (72 lb/A Phosphate); base control 12798
# Description: Esterase A (EstA) from Bacillus subtilis (SEQ ID NO:254) was produced via fermentation of a recombinantly produced enzyme in Bacillus subtilis. 2 fl oz of fermentation product was applied onto either 72 lb P/A (phosphate equivalent per acre) monoammonium phosphate (MAP) fertilizer or diammonium phosphate (DAP) fertilizer in a concrete mixer, and allowed to mix for 1 minute. A MAP/DAP control treatment without fermentation media was also created. MAP or DAP, alone or with fermentation media was distributed across 4 small replicated plots each prior to planting of corn with 5 replicates of 400 ft2 each at each site (4 site with MAP, 4 sites with DAP, combined in data in Table 52 below).
# corn [3] = assay: Field trial: esterase on DAP fertilizer, corn yield; conditions: 1, 2, or 3 fl oz fermentation product on 67.5 lb P/A DAP
# Description: Esterase A (EstA) from Bacillus subtilis (SEQ ID NO:254) was produced via fermentation of a recombinantly produced enzyme in Bacillus subtilis. 1, 2, or 3 fl oz of fermentation product was applied onto 67.5 lb P/A (phosphate equivalent per acre) diammonium phosphate (DAP) fertilizer in a concrete mixer, and allowed to mix for 1 minute. A DAP control treatment without fermentation media was also created. DAP, alone or with fermentation media was distributed across 4 small replicated plots each prior to planting of corn with 4 replicates of 400 ft^2 each at each site.
# winter wheat [4] = assay: Field trial: esterase on urea fertilizer, winter wheat yield; conditions: 1 fl oz or 2 fl oz fermentation product on 15 lb N/A urea
# Description: (§1) Esterase A (EstA) from Bacillus subtilis (SEQ ID NO:254) was produced via fermentation of a recombinantly produced enzyme in Bacillus subtilis. 1 fl oz or 2 fl oz of fermentation product was applied onto 15 lb N/A (nitrogen equivalent per acre) urea fertilizer in a concrete mixer and allowed to mix for 1 minute. A urea control treatment without fermentation media was also created. urea, alone or with fermentation media was distributed across 4 small replicated plots prior to planting of winter wheat with 5 replicates of 300 ft^2 each at each site.
# winter wheat [5] = assay: Field trial: esterase on MAP fertilizer, winter wheat yield and vigor; conditions: 1 fl oz/A EstA fermentation on MAP (15 lb/A Phosphate); MAP base control 4124.5
# Description: as §1, with “oz” for “oz or 2 fl oz”, “lb P/A (phosphate” for “lb N/A (nitrogen”, “acre) monoammonium phosphate (MAP)” for “acre) urea”, “A MAP” for “A urea”, “created. MAP,” for “created. urea,”
# corn [6] = assay: Field trial: EstA Esterase corn seed treatment, yield; conditions: 2.5 fl oz/unit on hybrid corn seed; 16 sites
# Description: 2.5 fl oz/unit of EstA Esterase from recombinant Bacillus subtilis fermentation (SEQ ID NO: 254) was coated onto hybrid corn seeds treated with Fludioxinil, Azoxystrobin, mefonoxam, and thiabendaz fungicides, cyantraniliproleinsecticide, peridium 1006 polymer, and (colorant). A control treatment without esterase enzyme was also created. The seed treated with esterase and control seed was planted in replicated trials distributed across 16 replicated plots with 4 replicates of 80 ft2 each at each site.
molecule,measurement,setting,value
"EstA fermentation: Esterase A (EstA) from Bacillus subtilis (SEQ ID NO:254), fermentation product of recombinant Bacillus subtilis (protein, listed as Bacillus subtilis) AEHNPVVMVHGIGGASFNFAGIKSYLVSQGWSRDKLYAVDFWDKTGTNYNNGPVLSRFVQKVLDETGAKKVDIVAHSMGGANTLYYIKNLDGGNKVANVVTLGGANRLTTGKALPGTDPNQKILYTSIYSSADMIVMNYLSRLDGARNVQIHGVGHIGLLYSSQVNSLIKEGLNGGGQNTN",yield vs urea control and NBPT containing treatments (in words),corn [1],increased the yield
same,Yield (Kg/ha),corn [2],13077 Kg/ha
same,yield vs DAP control (in words),corn [3],increased the yield
same,yield vs urea control (in words),winter wheat [4],increased the yield
same,Yield (Kg/ha),winter wheat [5],4224.7 Kg/ha
same,yield vs base seed treatment package (in words),corn [6],increased the yield
